Assays:
[1] = tested on: HeLa Kyoto; assay: melting temperature (median over replicates), in situ; higher = more thermally stable
[2] = tested on: HeLa Kyoto; assay: thermal stability score vs G1/S (z-score of summed log2 fold changes over temperatures); higher = more thermally stable than in G1/S
[3] = tested on: HeLa Kyoto; assay: solubility in G1/S (NP-40 vs SDS abundance) (log2 ratio); higher = more soluble; details: cell cycle stage: G1/S
[4] = tested on: HeLa Kyoto; assay: solubility change mitosis vs G1/S (difference of NP-40 vs SDS log2 ratios) (log2 ratio difference); higher = more soluble in mitosis
[5] = cell cycle stage: early G1 (4.5 h after nocodazole release)
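Throughout, for melting temperature (median over replicates), in situ: HeLa Kyoto cells synchronized by double thymidine or nocodazole block, proteins quantified by TMT10plex mass spectrometry, three independent biological replicates.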
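Throughout, for solubility change mitosis vs G1/S (difference of NP-40 vs SDS log2 ratios): synchronized HeLa Kyoto cells (double thymidine block for G1/S, nocodazole release for mitosis), protein amounts in NP-40 versus SDS lysates quantified by mass spectrometry, three biological replicates.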
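Throughout, for solubility in G1/S (NP-40 vs SDS abundance): HeLa Kyoto cells arrested at G1/S by double thymidine block, proteins quantified by TMT10plex mass spectrometry in mild NP-40 versus SDS extracts, three biological replicates.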
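Throughout, for thermal stability score vs G1/S (z-score of summed log2 fold changes over temperatures): synchronized HeLa Kyoto cells, proteins quantified by TMT10plex mass spectrometry, three biological replicates, mitosis taken 0.5 h after nocodazole release, G1/S directly after double thymidine block.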

| Sequence | melting temperature ([1]; cell cycle stage: G1/S) [°C] | melting temperature ([1]; cell cycle stage: mitosis) [°C] | thermal stability score [2, 5] | thermal stability score ([2]; cell cycle stage: mitosis) | solubility in G1/S (log2) [3] | solubility change mitosis (log2) [4] |
| --- | --- | --- | --- | --- | --- | --- |
| MAAGTSSYWEDLRKQARQLENELDLKLVSFSKLCTSYSHSSTRDGRRDRYSSDTTPLLNGSSQDRMFETMAIEIEQLLARLTGVNDKMAEYTNSAGVPSLNAALMHTLQRHRDILQDYTHEFHKTKANFMAIRERENLMGSVRKDIESYKSGSGVNNRRTELFLKEHDHLRNSDRLIEETISIAMATKENMTSQRGMLKSIHSKMNTLANRFPAVNSLIQRINLRKRRDSLILGGVIGICTILLLLYAFH [GOSR1] | 54.7 | 52 | -0.21 | -0.667 | 0.28 | 0.02 |
| MAAGVDCGDGVGARQHVFLVSEYLKDASKKMKNGLMFVKLVNPCSGEGAIYLFNMCLQQLFEVKVFKEKHHSWFINQSVQSGGLLHFATPVDPLFLLLHYLIKADKEGKFQPLDQVVVDNVFPNCILLLKLPGLEKLLHHVTEEKGNPEIDNKKYYKYSKEKTLKWLEKKVNQTVAALKTNNVNVSSRVQSTAFFSGDQASTDKEEDYIRYAHGLISDYIPKELSDDLSKYLKLPEPSASLPNPPSKKIKLSDEPVEAKEDYTKFNTKDLKTEKKNSKMTAAQKALAKVDKSGMKSIDTFFGVKNKKKIGKV [RNASEH2B] | 48.8 | 49.7 | -0.0838 | 0.982 | 0.517 | -0.0965 |
| MAAIPPDSWQPPNVYLETSMGIIVLELYWKHAPKTCKNFAELARRGYYNGTKFHRIIKDFMIQGGDPTGTGRGGASIYGKQFEDELHPDLKFTGAGILAMANAGPDTNGSQFFVTLAPTQWLDGKHTIFGRVCQGIGMVNRVGMVETNSQDRPVDDVKIIKAYPSG [PPIL1] | 49.1 | 50.1 | -0.554 | -0.941 | 0.351 | 0.414 |
| MAAIRMGKLTTMPAGLIYASVSVHAAKQEESKKQLVKPEQLPIYTAPPLQSKYVEEQPGHLQMGFASIRTATGCYIGWCKGVYVFVKNGIMDTVQFGKDAYVYLKNPPRDFLPKMGVITVSGLAGLVSARKGSKFKKITYPLGLATLGATVCYPVQSVIIAKVTAKKVYATSQQIFGAVKSLWTKSSKEESLPKPKEKTKLGSSSEIEVPAKTTHVLKHSVPLPTELSSEAKTKSESTSGATQFMPDPKLMDHGQSHPEDIDMYSTRS [APOOL] | 53.9 | 57.3 | -1.29 | -2.35 | 0.166 | -0.104 |
| MAAKSQPNIPKAKSLDGVTNDRTASQGQWGRAWEVDWFSLASVIFLLLFAPFIVYYFIMACDQYSCALTGPVVDIVTGHARLSDIWAKTPPITRKAAQLYTLWVTFQVLLYTSLPDFCHKFLPGYVGGIQEGAVTPAGVVNKYQINGLQAWLLTHLLWFANAHLLSWFSPTIIFDNWIPLLWCANILGYAVSTFAMVKGYFFPTSARDCKFTGNFFYNYMMGIEFNPRIGKWFDFKLFFNGRPGIVAWTLINLSFAAKQRELHSHVTNAMVLVNVLQAIYVIDFFWNETWYLKTIDICHDHFGWYLGWGDCVWLPYLYTLQGLYLVYHPVQLSTPHAVGVLLLGLVGYYIFRVANHQKDLFRRTDGRCLIWGRKPKVIECSYTSADGQRHHSKLLVSGFWGVARHFNYVGDLMGSLAYCLACGGGHLLPYFYIIYMAILLTHRCLRDEHRCASKYGRDWERYTAAVPYRLLPGIF [DHCR7] | 51 | 50.7 | 0.148 | -0.18 | -0.604 | -0.0769 |
| MAALGVAEAVAAPHPAEGAETAEAVELSRALSRLLPGLEADSKPGRRRALEALRRALEEPGPAADPTAFQGPWARLLLPRLLRCLSDPAEGCRALAVHLLDLGLRRAARPRDALPRLLPALAARLAGPVPARRPPEACEELRLALVQLLGLAVDLCGAALAPHLDDALRALRCSLLDPFAAVRRESCSCAAALAQATPDHFHMQSESLIGPLMQTISHQHWKVRVAAIEATGAVIHFGNGKSVDDVLSHFAQRLFDDVPQVRRAVASVVGGWLLCLRDRYSFFHKLIPLLLSSLNDEVPEVRQLAASLWEDVGLQWQKENEEDLKDKLDFAPPTPPHYPPHERRPVLGCRELVFRNLSKILPALCHDITDWVVGTRVKSAQLLPVLLLHAEDHATQHLEVVLRTLFQACTDEEAAVVQSCTRSAELVGTFVSPEVFLKLILSTLKKTPSASGLLVLASAMRGCPREALQPHLAAIATELAQAHICQASENDLYLERLLLCVQALVSVCHEDCGVASLQLLDVLLTIVALAGATGLRDKAQETMDSLAMVEGVSSCQDLYRKHIGPLLERVTASHLDWTAHSPELLQFSVIVAQSGPALGEALPHVVPTLRACLQPSQDPQMRLKLFSILSTVLLRATDTINSQGQFPSYLETVTKDILAPNLQWHAGRTAAAIRTAAVSCLWALTSSEVLSAEQIRDVQETLMPQVLTTLEEDSKMTRLISCRIINTFLKTSGGMTDPEKLIRIYPELLKRLDDVSNDVRMAAASTLVTWLQCVKGANAKSYYQSSVQYLYRELLVHLDDPERAIQDAILEVLKEGSGLFPDLLVRETEAVIHKHRSATYCEQLLQHVQAVPATQ [DNAAF5] | 48.1 | 48 | 0.695 | 2.82 | 0.0447 | -0.172 |
